Where no end group is shown, it is not given here.
How the values were obtained:
[1] = biological target: T1, Membrane type 1 matrix metalloproteinase (MT1-MMP) (Homo sapiens, UniProt P50281 112-582); assay: cell-based or functional assay
[2] = biological target: T1, Membrane type 1 matrix …; assay: flow cytometry on cells expressing MT1-MMP

Row | IC50, 3D invasion assay (human MDA-MB-231 breast cancer cell invasion) [1] | binding result [2] | Binder
1 | 10000 nM |  | GYPKSALR [IVS4-8 peptide (GYPKSALR)]
2 | 1500 nM |  | GYPMP [IS4-5 peptide (GYPMP)]
3 |  | binds | GYPMP (also: biotinylated (site not given here), also called biotinylated IS4-5 peptides) [biotinylated IS4-5 peptide]
4 | 1500 nM |  | VMDGYPMP [IS4-8 peptide (VMDGYPMP)]
